Test [1] has as its target recombinant rhesus macaque TNF (rhesus macaque) (UniProt P48094). In words: cell-based or functional assay.
Test [2] concerns the target recombinant bovine TNF (bovine) (UniProt Q06599). In words: cell-based or functional assay.
Test [3] has as its target transmembrane TNF on stimulated human PBMC (human) (UniProt P01375). In words: cell-based or functional assay.
In test [4] the target is recombinant murine TNF (murine) (UniProt P06804). In words: cell-based or functional assay.
Sequence of UniProt P06804 (P06804 whole entry, form in doubt): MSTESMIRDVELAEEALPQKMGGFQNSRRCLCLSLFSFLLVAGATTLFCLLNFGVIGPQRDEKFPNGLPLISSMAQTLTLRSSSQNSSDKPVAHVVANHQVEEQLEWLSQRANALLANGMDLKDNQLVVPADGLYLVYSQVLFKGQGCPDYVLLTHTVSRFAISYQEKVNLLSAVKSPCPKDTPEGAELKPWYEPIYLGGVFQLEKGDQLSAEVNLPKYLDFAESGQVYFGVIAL
In test [5] the target is recombinant cynomolgus monkey TNF (cynomolgus monkey) (UniProt P79337). In words: cell-based or functional assay.
Sequence of UniProt P79337 (P79337 whole entry, form in doubt): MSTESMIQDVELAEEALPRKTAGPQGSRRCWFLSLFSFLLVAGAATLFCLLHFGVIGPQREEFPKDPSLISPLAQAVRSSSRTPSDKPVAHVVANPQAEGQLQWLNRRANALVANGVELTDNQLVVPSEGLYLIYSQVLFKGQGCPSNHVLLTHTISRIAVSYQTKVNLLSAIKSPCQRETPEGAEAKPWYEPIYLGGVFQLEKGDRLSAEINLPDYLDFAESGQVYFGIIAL
Test [6] deals with recombinant human TNF (human) (UniProt P01375). In words: cell-based or functional assay.
Test [7] addresses recombinant canine TNF (canine) (UniProt P51742). In words: cell-based or functional assay.
Sequence of UniProt P51742 (P51742 whole entry, form in doubt): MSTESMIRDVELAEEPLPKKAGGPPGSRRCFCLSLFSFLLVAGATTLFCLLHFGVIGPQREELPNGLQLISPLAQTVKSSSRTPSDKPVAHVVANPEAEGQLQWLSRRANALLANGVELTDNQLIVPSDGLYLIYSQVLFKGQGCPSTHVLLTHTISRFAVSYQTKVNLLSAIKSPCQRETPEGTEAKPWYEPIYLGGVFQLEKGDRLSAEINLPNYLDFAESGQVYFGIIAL
The target in test [8] is recombinant rat TNF (rat) (UniProt P16599). In words: cell-based or functional assay.
Sequence of UniProt P16599 (P16599 whole entry, form in doubt): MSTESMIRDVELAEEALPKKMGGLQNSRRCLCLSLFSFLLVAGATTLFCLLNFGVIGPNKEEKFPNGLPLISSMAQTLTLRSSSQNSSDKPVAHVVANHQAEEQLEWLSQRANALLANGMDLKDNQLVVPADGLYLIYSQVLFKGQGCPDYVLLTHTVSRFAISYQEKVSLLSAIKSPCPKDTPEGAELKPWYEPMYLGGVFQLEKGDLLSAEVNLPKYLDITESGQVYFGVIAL
Test [9] addresses recombinant human IL-6 (human) (UniProt P05231). In words: sandwich ELISA, rhIL-6 300 pg/ml captured by plate-bound antibody.
Sequence of UniProt P05231 (P05231 30-212 limits assumed): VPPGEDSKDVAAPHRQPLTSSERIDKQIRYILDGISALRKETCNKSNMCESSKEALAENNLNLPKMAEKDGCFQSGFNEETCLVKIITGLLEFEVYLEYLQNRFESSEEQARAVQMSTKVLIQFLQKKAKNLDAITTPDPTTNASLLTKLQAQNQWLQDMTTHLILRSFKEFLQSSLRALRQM
Test [10] has as its target recombinant human TNF (human) (UniProt P01375). In words: anti-TNF ELISA, protein by BCA; first of two lots. Background: An ELISA detects its analyte on a solid surface through an enzyme-linked reagent.
For test [11] the target is unchanged. In words: sandwich ELISA, rhTNF 250 pg/ml captured by plate-bound antibody.
For test [12] the target is unchanged. In words: table head: EC50 in TNF ELISA; the text that introduces the table speaks of the L929 neutralization assay.
Test [13] shares this target. In words: anti-TNF ELISA, AU/mg of final lot over defatted colostrum.
For test [14] the target is unchanged. In words: anti-TNF ELISA, protein by BCA; second of two lots.

The source of these data is US20130058943A1.

Sequence of UniProt P48094 (P48094 whole entry, form in doubt): as the sequence (P79337 whole entry, form in doubt) above, with Q8R, A45T, V113L counted along it
Sequence of UniProt Q06599 (Q06599 whole entry, form in doubt): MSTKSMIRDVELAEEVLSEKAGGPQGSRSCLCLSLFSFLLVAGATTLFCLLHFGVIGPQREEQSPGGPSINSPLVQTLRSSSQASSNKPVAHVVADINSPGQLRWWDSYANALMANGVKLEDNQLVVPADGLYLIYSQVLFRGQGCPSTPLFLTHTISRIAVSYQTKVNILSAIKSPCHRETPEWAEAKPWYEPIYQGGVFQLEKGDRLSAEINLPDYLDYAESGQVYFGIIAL

A word on the EC50: it is the concentration at which the effect is half-maximal. Take “AVX-470, bovine colostrum-derived polyclonal anti-hTNF antibody”: the EC50, L929 neutralization assay was 32 µg/mL in test [1]; over 2000 µg/mL in [2]; over 2000 µg/mL in test [4]; 48 µg/mL in test [5]; 28 µg/mL in test [6]; 250 µg/mL in test [7]. In addition, in test [8], the EC50, L929 neutralization assay is over 2000 µg/mL. The Late apoptotic cells, annexin V / propidium iodide FACS of stimulated human PBMC (untreated 27.16%) in [3] was found to be 43.3%. The substance also came in with a Total apoptotic cells, annexin V / propidium iodide FACS of stimulated human PBMC (untreated 34.65%) in test [3] of 52.1%. In addition, the Absorbance 450 nm (absorbance at 450 nm) in test [9] amounted to 0.03; in [11] it was 0.76. Further, the anti-TNF activity by ELISA per mg protein (AU/mg protein) came to 634 in test [10] and 526 in test [14]. Further, the EC50 in test [12] was 15.9 µg/mL. In addition, the fold increase of potency against defatted colostrum in [13] turned out to be 1.9 fold.

Control Bovine Ig (antibody): the figures for the Absorbance 450 nm (absorbance at 450 nm) in test [9] and in test [11] were 0.01 and -0.01, respectively.
